Results taken from the nanobody polyreactivity screen of Harvey et al. (2022).

Test: yeast display, Sf9 membrane polyspecificity reagent, FACS + sequencing; frameworks hold sequencing errors
Outline: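 Galactose induction of a Saccharomyces cerevisiae BJ5465 synthetic nanobody display library ran 36–48 hours. The cells were then stained for 1 hour at 4 °C with 10% biotinylated, detergent-solubilized Sf9 membrane reagent, pulled down on streptavidin microbeads and FACS-sorted into low and high (top ~1%) gates on expression and reagent-binding fluorescence. Labels for polyreactivity follow the gate of origin.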

Question: Which “polyreactivity (PSR sort gate)” value does the source give for “QVQHVESGGGLVQAGGSLRLSCAASGSIIDIYAMGWYRQAPGKERELVASISGGAGSTNYADSVKGRFTISRDNAKNSVYLQMNSLKPEDTGVDDFAAVVYVPVYFQHKFDVEYEYWGQGTQVTVSS” here?
Answer: low polyreactivity

Question: With “QVQLLESGGGLVKAGGCRRLSCAASGSTLTPYTMGWYSEAPGIERELVAAMTQCGGTTYYADSVKGRFTISRDNAQNTVYVQMNSLKPEDTAVYYCAARSYGSTSPIRVQLYYWGQGTQVTVSS” as the sequence, how does the “polyreactivity (PSR sort gate)” value read?
Answer: high polyreactivity

Question: Which “polyreactivity (PSR sort gate)” value does the source give for “QVQLVESGGGLVQAGGSLRLRCAASGFTFGAYAMGWYRQAPGKERELVATIDWRGSSTYYADSVKGRFTISRDNAKNTVYLQMNSLKPEDTAVYYCAARLARGSYAYEYWGQGTQVTVSS” here?
Answer: low polyreactivity

Question: With “QVQLVESGGGLVQAGGSLRLSCAPSGRTFIFYAMGWYRQAPGKERELVAAISSSGSGTYYADSLKGRFTISRDNAKNTVYLQMNSLKPEDTAVYSCAAAVVNSRRRPKYGYWGQGTQVTVSS” as the sequence, how does the “polyreactivity (PSR sort gate)” value read?
Answer: low polyreactivity

Question: With “QVQLVESGGGLVQAGGSLRLSCAASGSISYYYGKGWYRQAPGKERELVAAISTRGGSTYYADSVKGRFTISRDNAKNTVYLQMNSLKPEDTAVYYCNKVYYKRFYYWGQGTQVTVSS” as the sequence, how does the “polyreactivity (PSR sort gate)” value read?
Answer: high polyreactivity

Question: For “QDQLVESGGGLVQAGGNLRLSCAASGRIYRYYAMGWYRQAPGKERELVATITLNTVSTYYADSVKGRFTISRDNAKNTVYVQKNSRTPEDTAVYYCAAGAVRFGAGYSRYWEDDYWGQGTQVTVSS”, which “polyreactivity (PSR sort gate)” value is on record?
Answer: high polyreactivity

Question: With “QVQRVESGGGLGLAGGSLRLSCAASGITFVLYALGGYRQAPGKERALVASITWDATDTYYADSVKGRFTISRDNAKNTEYIPMNSLKPDDTAVSYCNAAYYNYWWLEYDYWGQGTQVTVSS” as the sequence, how does the “polyreactivity (PSR sort gate)” value read?
Answer: high polyreactivity

Question: Which “polyreactivity (PSR sort gate)” value does the source give for “QVQLQESGGGLVQAGVSLRLSCAASGSIFADVQMGWYRQAPGKERELVASIIFRGTTTYYADSVKGRFTISRDNAKNTVYLQMSSLKPEDTAVYYCAVGRSEGGDFAYWGQGTHVTVSS” here?
Answer: low polyreactivity

Question: Which “polyreactivity (PSR sort gate)” value does the source give for “QVQHVESGGGLVQAGGSRRLSCAASGSIFFYAMGWYRQAPAKERVLVAAITSAGSTNFADSVKGRFTISRDNAKNTVYLQMYSLKPEDTAVYYCAAGYVGYSWSYPYGWVEYDYWGQGTQVTVSS” here?
Answer: high polyreactivity

Question: For “QGQLVESGGGLVQAGGSLRLSCAAAGFTFGSYAMGWYRHAPGKERELFARISSDGSTNYADSVKGRFTISSDNAKNTVYLQMNSLKPEDTAVYYCNADRQYTCSLVFFSSDYDYWGLGTQVTVSS”, which “polyreactivity (PSR sort gate)” value is on record?
Answer: low polyreactivity

Question: With “QVQLVESGGGSVQAGGSLRLSCAASGRTFVFNAMGWYRQAPGKESELVAGISGSGGSTYYAESVKGRFTISRDNAKNNVYLQMNSLKPEDTAVYYCANTFPRKELDQESVSGLGYWGQGTQVTVSS” as the sequence, how does the “polyreactivity (PSR sort gate)” value read?
Answer: low polyreactivity

Question: For “QVQLVESGGGLVQAGGSLRISCAASGFIFWIYAMGWYRQAPGKEREFVAVITYRGDTTYYADSVKGRFTISRDNAKNTVYLQMNSLKPEDTAVYYCAAYTVQKYGYWGQGTQVTVSS”, which “polyreactivity (PSR sort gate)” value is on record?
Answer: low polyreactivity

Question: With “QVQLVESGGCIVQAGVSLRLSCSSSGRTFGYNAMGLYRNAPGKERELVAAINWSGASKYYADSVKGRFTISRDNAKNTVYLQMNSLKPEDTAVYYCAADYSYIYGFDYWGQGTQVTVSS” as the sequence, how does the “polyreactivity (PSR sort gate)” value read?
Answer: low polyreactivity

Question: With “QVQLVESGGGLVQAGGSLRLSSAASGFTFSDNAMGWYRQAPGKERELVAAISRSGGNTHYADSVKGRFTISRDNAKNTVYLQMNSLKPEDTAVYYCAKYLYKSRIRSTFDYWGQGTQVTVSS” as the sequence, how does the “polyreactivity (PSR sort gate)” value read?
Answer: high polyreactivity

Question: Which “polyreactivity (PSR sort gate)” value does the source give for “QDQLVESGGGLVQAGGSLRLSCAASGRTFWAYAMGWYRQAPGKEREVVASIRSSGTSTYYADSVMGRFTISRDNAKNSVYLQMNSLKPEDTAVYYCAATSGYARYYHREYWGQGTQVTVSS” here?
Answer: high polyreactivity

Question: Which “polyreactivity (PSR sort gate)” value does the source give for “QVQLVESGGGLVQAGGSLRLSCAASGSIFRTNTMGWYRQAPGKEREFVAAITAIGDSTYYADSVKGRFTISRDNAKNTVYLQMNSLKPEDTAVYYCAAEKVSWGYHFYSSYDYWGQGTQVTVSS” here?
Answer: low polyreactivity

Question: With “QVQLVESGGGLVQAGGSLRLSCAASGFIFGAYAMGWYRQAPGKERELVAAITRSGGNTYYADSVKGRFTISRDNAKNTVYLQMNSLKPEDTAVYYCNVVGVYHYEDYYYWGQGTQVTVSS” as the sequence, how does the “polyreactivity (PSR sort gate)” value read?
Answer: high polyreactivity

Question: For “QVQLVESGGGLVQAGGSLRLSCAASGSIFGYYALGWYRQAPGKERELVAAITSVGSTYYADSVKGRFTISRDNAKKTVSLQMNSLKPEDTAVYYCATRFWFRSLRSSYYYWGQGTQVTVSS”, which “polyreactivity (PSR sort gate)” value is on record?
Answer: high polyreactivity

Question: For “QVQLVESGGGLVQAGGSLRLRCASSGGIFYLNAMGWYRQAPGKERELVAAITGTGGNTYYADSVKGRFTISRDNAKNTVYLQMNSLKPEDTGVYYCNVSSRRLRGLDYWGQGTQVSVSS”, which “polyreactivity (PSR sort gate)” value is on record?
Answer: low polyreactivity

Question: Which “polyreactivity (PSR sort gate)” value does the source give for “QVQLVESGGGLVQAGGSLRIICAASGSTLGYNAMGWYRQAPGKERELVAAISSDGGSTYYADSVKGRFTISRDNAKNTVYLQMNSLKPEDTAVYYCAAYYYTPGYGSWGQGTQVTVSS” here?
Answer: low polyreactivity

Question: With “QVQLVESGGGLVQAGGSLRLSCAASGYTFGWYAMGWYRQAPGTERELVAGISSAGSTNYADSVKGRFTISRDNAKNTVYLQMNSLKPEDTAVYYCARDKWGLRYAPTVDYWGQGTQLTVSS” as the sequence, how does the “polyreactivity (PSR sort gate)” value read?
Answer: high polyreactivity

Question: Which “polyreactivity (PSR sort gate)” value does the source give for “QVQLVESGGCLVQAGGSLRLICAASGSIFDINAMGWYSQAPGKERELVADIRRGDSTNYADSVKGRFTISRDNAKNTVYLQMNSLKPEDTAVYYCAARWRRSIYGFYPQRPYDYWGQGTQVTVSS” here?
Answer: high polyreactivity
